From US20230129084A1, “COMPOSITE IMPLANTS” (Re-Vana Therapeutics Ltd., priority 2015, published 2023)

Tests used:
[1] = tested on: rat eye; test: In vivo implant formation of ISPcI in rat eye following intravitreal injection; details: day 1, day 6 and day 18
Protocol: 2 μl of ISPcI gel formulation was injected by intravitreal route in the rat eye, following by UV light exposure for 2 min, fundus images were collected to locate the implant formation and image model dye release within the eye. Likewise PPcI were administered by subconjunctival route and any surface inflammation monitored by experienced ophthalmologist

[2] = In vitro drug release from in situ photocrosslinked implants (ISPcI) in PBS
Protocol: (§1) For drug release studies selected ISPcI gel formulation were injected (approx. 0.2 g or 0.1 g) into desired amount of PBS (pH 7.3±0.2). Sink conditions were maintained for each drug type. ISPcI were formed by exposing them immediately to 365 nm using bench-top UV light (at 3.1±0.1 mW/cm^2, CAMAG, Muttenz, Switzerland) for varying periods of time in PBS. The implants were stored in an incubator (37° C. and 60 rpm) for the duration of the release study. At predetermined time intervals the entire PBS medium was removed and replaced with equal amount of fresh PBS. All the experiments were carried out in triplicates. The concentration of released drug molecule in the PBS samples was analyzed as described below.
BSA, OVA and bevacizumab (Avastin) were assayed using a Pierce™ Micro BCA protein assay kit (Thermo Scientific, Hampton, UK). To a microwell, 150 μL of BSA, OVA or BVZ standard or release sample was pipetted and 150 μL of working reagent was added. A plate shaker ensured thorough mixing. The 96-well plate was covered and incubated for 2 hours at 37° C. Once the plate was allowed to return to room temperature, a UV plate reader measured the absorbance at 562 nm. The average absorbance reading of the blank was subtracted from those of the standards/samples.

[3] = In vitro drug release from preformed photocrosslinked implants (PPcI) in PBS; type: physicochemical; details: PPcI 30% w/w PLGA 75/25 / PEGDA 700, 5 runs, lamp intensity 100%, after 266 days
Protocol: as §1
Analysis of DEX and TA samples were carried out using reversed-phase HPLC with UV detection (Agilent 1260 Infinity Quaternary System) using an Agilent Zorbax Eclipse Plus 250 mm C18 column (250 mm length, 4.6 mm internal diameter and 5 μm particle size) and an Agilent Zorbax guard column held at 25° C. […] Analysis required a mobile phase of 60% water and 40% acetonitrile with UV absorbance at 270 nm (for DEX) and 236 nm (for TA) at a flow rate of 1 ml/min and 0.8 ml/min respectively. Analysis of FITC-Dextran 150 kDa release was conducted using a fluorescence spectrophotometer. […] Fluorescence excitation occurred at 480 nm with emission measured at 520 nm. […]

[4] = ELISA test for bioactivity of OVA released from ISPcI; details: released from ISPcI at 37±2° C., after 1 and 3 months
Protocol: (Agilent Technologies UK Ltd, Stockport, UK). […] A plate shaker ensured thorough mixing.
Due to slow degradation rate of the crosslinked ISPcIs, the drastic drop in local pH is further delayed (unlike PLGA only implants) which is especially important and an advantage in protecting the sensitive molecules such as peptides and proteins. […] For example, an ELISA test was conducted to determine the bioactivity of released OVA from the ISPcI, at 37±2° C., after 1 and 3 months, respectively.

Molecule: O=C1OC2(c3ccc(O)cc3Oc3cc(O)ccc32)c2ccccc21 [fluorescein sodium]
- release of fluorescein sodium from ISPcI implant in the eye (fundus images) [1]: slow and continuous release

Molecule: Bevacizumab [BVZ]
- BVZ released ([2]; 30% PLGA ISPcI implants UV crosslinked for 30 sec): ~100%
- BVZ released ([2]; 30% PLGA ISPcI implants UV crosslinked for 2.5 min): approximately 41%

Molecule: Fluorescein isothiocyanate-dextran [FITC-Dextran 150 kDa]
- % release [3]: ~27%

B1: ovalbumin (protein, UniProt P01012 2-386, looked up)
Ovalbumin: GSIGAASMEFCFDVFKELKVHHANENIFYCPIAIMSALAMVYLGAKDSTRTQINKVVRFDKLPGFGDSIEAQCGTSVNVHSSLRDILNQITKPNDVYSFSLASRLYAEERYPILPEYLQCVKELYRGGLEPINFQTAADQARELINSWVESQTNGIIRNVLQPSSVDSQTAMVLVNAIVFKGLWEKAFKDEDTQAMPFRVTEQESKPVQMMYQIGLFRVASMASEKMKILELPFASGTMSMLVLLPDEVSGLEQLESIINFEKLTEWTSSNVMEERKIKVYLPRMKMEEKYNLTSVLMAMGITDVFSSSANLSGISSAESLKISQAVHAAHAEINEAGREVVGSAEAGVDAASVSEEFRADHPFLFCIKHIATNAVLFFGRCVSP
notes: model protein molecule, Mw of 45 kDa
- OVA remained active (bioactivity of released OVA by ELISA) [4]: ~97±2%
